These results are taken from paper PMC11011275, “Impact of Protein Nanoparticle Shape on the Immunogenicity of Antimicrobial Glycoconjugate Vaccines” (International Journal of Molecular Sciences, 2024).

The data set deals with the molecule itself. The data set is described as follows: negative-stain transmission electron microscopy; Hcp1cc nanotubes incubated with the reducing agent DTT (nanorings).

B1: Pseudomonas aeruginosa Hemolysin-coregulated protein 1 double mutant G90C + R157C (Hcp1cc) (natural protein)
chain: MAVDMFIKIGDVKGESKDKTHAEEIDVLAWSWGMSQSGSMHMGGGGGAGKVNVQDLSFTKYIDKSTPNLMMACSSGKHYPQAKLTIRKACGENQVEYLIITLKEVLVSSVSTGGSGGEDRLTENVTLNFAQVQVDYQPQKADGAKDGGPVKYGWNICQNVQA
notes: Hemolysin-coregulated protein 1 (Hcp1) of Pseudomonas aeruginosa with G90C and R157C; printed monomer mass 18.3 kD; 6 copies make one ring; without reducing agent the rings stack into disulfide-bonded nanotubes (up to 8-9 rings as purified, up to 14-18 rings after the oligomerization process); also called Hcp1cc nanoring; Hcp1cc nanotube; source: tangential flow filtration
B1: the “stoichiometry N” value is 6 monomers.
